Test results published in article PMC8136917, “The glycosyltransferase UGT76B1 modulates N-hydroxy-pipecolic acid homeostasis and plant immunity” (The Plant Cell, 2021).

Assays:
[1] = substrate: O=C(O)c1ccccc1O; assay: UPLC-nanoESI-QTRAP-MS of product SAG; Hill regression; assay type: biochemical, Arabidopsis thaliana; conditions: UDP-glucose co-substrate (2 mM in methods); 5 min at 25°C (Figure 6 legend; methods say 15 min at 30°C)
[2] = substrate: O=C(O)[C@@H]1CCCCN1O; assay: UPLC-nanoESI-QTRAP-MS of product NHP-OGlc; Hill regression; assay type: biochemical, Arabidopsis thaliana; conditions: UDP-glucose co-substrate (2 mM in methods); 5 min at 25°C (Figure 6 legend; methods say 15 min at 30°C)

B1: UGT76B1 (Arabidopsis thaliana) (protein)
chain: METRETKPVIFLFPFPLQGHLNPMFQLANIFFNRGFSITVIHTEFNSPNSSNFPHFTFVSIPDSLSEPESYPDVIEILHDLNSKCVAPFGDCLKKLISEEPTAACVIVDALWYFTHDLTEKFNFPRIVLRTVNLSAFVAFSKFHVLREKGYLSLQETKADSPVPELPYLRMKDLPWFQTEDPRSGDKLQIGVMKSLKSSSGIIFNAIEDLETDQLDEARIEFPVPLFCIGPFHRYVSASSSSLLAHDMTCLSWLDKQATNSVIYASLGSIASIDESEFLEIAWGLRNSNQPFLWVVRPGLIHGKEWIEILPKGFIENLEGRGKIVKWAPQPEVLAHRATGGFLTHCGWNSTLEGICEAIPMICRPSFGDQRVNARYINDVWKIGLHLENKVERLVIENAVRTLMTSSEGEEIRKRIMPMKETVEQCLKLGGSSFRNLENLIAYILSF
B1 gave a Km [1] of 75 ± 2 µM and a Km [2] of 191 ± 14 µM.
